# B1: Palmitoyltransferase ERF2 (Saccharomyces cerevisiae), Q06551 (parent)
# chain: MALVSRRSTRSESTSITKEEHTGEGSLTKLFFRWLVTLEGDQDINDGKGYISLPNVSNYIFFLGGRFRTVKGAKPLWLGVLLAIVCPMVLFSIFEAHKLWHTQNGYKVLVIFFYYFWVITLASFIRTATSDPGVLPRNIHLSQLRNNYQIPQEYYNLITLPTHSSISKDITIKYCPSCRIWRPPRSSHCSTCNVCVMVHDHHCIWVNNCIGKRNYRFFLIFLLGAILSSVILLTNCAIHIARESGGPRDCPVAILLLCYAGLTLWYPAILFTYHIFMAGNQQTTREFLKGIGSKKNPVFHRVVKEENIYNKGSFLKNMGHLMLEPRGPSFVSARKPHEAGDWRFMDLSPAHSFEKIQKI
# partner: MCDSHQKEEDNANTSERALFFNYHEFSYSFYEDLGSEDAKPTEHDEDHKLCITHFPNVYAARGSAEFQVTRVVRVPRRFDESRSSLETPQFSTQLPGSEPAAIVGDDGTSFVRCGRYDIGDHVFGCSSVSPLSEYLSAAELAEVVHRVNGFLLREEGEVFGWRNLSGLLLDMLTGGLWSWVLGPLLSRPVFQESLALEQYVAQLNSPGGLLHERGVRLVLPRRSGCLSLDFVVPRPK
# Variants of: B1
# Settings: with erfd_yeast SHR5, P41912
row,Variant,effect of a mutation on the interaction
1,MALVSRRSTRSESTSITKEEHTGEGSLTKLFFRWLVTLEGDQDINDGKGYISLPNVSNYIFFLGGRFRTVKGAKPLWLGVLLAIVCPMVLFSIFEAHKLWHTQNGYKVLVIFFYYFWVITLASFIRTATSDPGVLPRNIHLSQLRNNYQIPQEYYNLITLPTHSSISKDITIKYCPSCRIWRPPRSSHSSTCNVCVMVHDHHCIWVNNCIGKRNYRFFLIFLLGAILSSVILLTNCAIHIARESGGPRDCPVAILLLCYAGLTLWYPAILFTYHIFMAGNQQTTREFLKGIGSKKNPVFHRVVKEENIYNKGSFLKNMGHLMLEPRGPSFVSARKPHEAGDWRFMDLSPAHSFEKIQKI [C189S],disrupting interaction strength
2,MALVSRRSTRSESTSITKEEHTGEGSLTKLFFRWLVTLEGDQDINDGKGYISLPNVSNYIFFLGGRFRTVKGAKPLWLGVLLAIVCPMVLFSIFEAHKLWHTQNGYKVLVIFFYYFWVITLASFIRTATSDPGVLPRNIHLSQLRNNYQIPQEYYNLITLPTHSSISKDITIKYCPSCRIWRPPRSSHCSTCNVCVMVHDAHCIWVNNCIGKRNYRFFLIFLLGAILSSVILLTNCAIHIARESGGPRDCPVAILLLCYAGLTLWYPAILFTYHIFMAGNQQTTREFLKGIGSKKNPVFHRVVKEENIYNKGSFLKNMGHLMLEPRGPSFVSARKPHEAGDWRFMDLSPAHSFEKIQKI [H201A],with no effect
